Assay results reported in paper PMC12416549 (2024).
Numbering of substitutions follows the chain as printed. In names and notes the source's numbering stands.

T1: TNFR1 (Homo sapiens, UniProt P19438)
T1 chain: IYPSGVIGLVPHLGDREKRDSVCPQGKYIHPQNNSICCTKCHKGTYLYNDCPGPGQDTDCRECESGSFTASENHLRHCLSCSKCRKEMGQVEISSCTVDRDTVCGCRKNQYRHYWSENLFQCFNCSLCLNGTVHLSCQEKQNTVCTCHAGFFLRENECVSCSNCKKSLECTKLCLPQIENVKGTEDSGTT

B1: D65H (designed binder)
chain: MTLQELLREEALRRAEAEAFRYALELLAEKFPEQKEYLLDLAEEIESQIRSLSGVDVEDVRKFLHKEWAWVKELLAEHPAELAEVEAARAARLAELRAEVEAKVAA
B2: E84I (designed binder)
chain: B1 chain with H65D, E84I
B3: R13F (designed binder)
chain: B1 chain with R13F, H65D
B4: E22K (designed binder)
chain: SMEEEVEKAAKEYEKKKKEAIKKHLEKLKAKDKEAAERFLKELEEAAKEYAKDEAKTMSEEEAKRRAKKYKEKVLLSELSEEEQKEIKEAEEKLVRTILKYVEEAAK
B5: E82R (designed binder)
chain: B4 chain with K22E, E82R
B6: V102E (designed binder)
chain: B4 chain with K22E, V102E
B7: Q84P (designed binder)
chain: B4 chain with K22E, Q84P
B8: F39H (designed binder)
chain: B4 chain with K22E, F39H
B9: E7D (designed binder)
chain: B4 chain with E7D, K22E
B10: A90Y (designed binder)
chain: B4 chain with K22E, A90Y
B11: K56Y (designed binder)
chain: B4 chain with K22E, K56Y
B12: R96D (designed binder)
chain: B4 chain with K22E, R96D
B13: K15T (designed binder)
chain: B4 chain with K15T, K22E
B14: Y13D (designed binder)
chain: B4 chain with Y13D, K22E
B15: L43V (designed binder)
chain: B4 chain with K22E, L43V
B16: E7L (designed binder)
chain: B4 chain with E7L, K22E
B17: E103K (designed binder)
chain: B4 chain with K22E, E103K
B18: R38M (designed binder)
chain: B4 chain with K22E, R38M
B19: V6K (designed binder)
chain: B4 chain with V6K, K22E
B20: R96C (designed binder)
chain: B4 chain with K22E, R96C
B21: E19T (designed binder)
chain: B4 chain with E19T, K22E
B22: A63E (designed binder)
chain: B4 chain with K22E, A63E
B23: E91P (designed binder)
chain: B4 chain with K22E, E91P
B24: H24W (designed binder)
chain: B4 chain with K22E, H24W
B25: T97S (designed binder)
chain: B4 chain with K22E, T97S
B26: K16V (designed binder)
chain: B4 chain with K16V, K22E
B27: S77Q (designed binder)
chain: B4 chain with K22E, S77Q
B28: K15L (designed binder)
chain: B4 chain with K15L, K22E
B29: Y101I (designed binder)
chain: B4 chain with K22E, Y101I
B30: K93R (designed binder)
chain: B4 chain with K22E, K93R
B31: E60V (designed binder)
chain: B4 chain with K22E, E60V
B32: A51E (designed binder)
chain: B4 chain with K22E, A51E
B33: E45R (designed binder)
chain: B4 chain with K22E, E45R
B34: L40R (designed binder)
chain: B4 chain with K22E, L40R
B35: K31P (designed binder)
chain: B4 chain with K22E, K31P
B36: E5N (designed binder)
chain: B4 chain with E5N, K22E
B37: H24F (designed binder)
chain: B4 chain with K22E, H24F
B38: Y50F (designed binder)
chain: B4 chain with K22E, Y50F
B39: Y101N (designed binder)
chain: B4 chain with K22E, Y101N
B40: A10Y (designed binder)
chain: B4 chain with A10Y, K22E
B41: A51R (designed binder)
chain: B4 chain with K22E, A51R
B42: E104S (designed binder)
chain: B4 chain with K22E, E104S
B43: E45C (designed binder)
chain: B4 chain with K22E, E45C

Molecular target: T1, TNFR1
Experiment: yeast display SC50

| apparent Kd (screen) | Binder |
| --- | --- |
| 0.718 nM | B1 |
| 0.869 nM | B2 |
| 0.277 nM | B3 |

Molecular target: T1, TNFR1
Experiment: yeast display SC50
Remark: another data set of the same source

| apparent Kd (screen) | Binder |
| --- | --- |
| 1.05 nM | B4 |
| 0.405 nM | B5 |
| 1.4 nM | B6 |
| 22.2 nM | B7 |
| 4.39 nM | B8 |
| 0.956 nM | B9 |
| 0.49 nM | B10 |
| 3.99 nM | B11 |
| 10.4 nM | B12 |
| 0.653 nM | B13 |
| 12.5 nM | B14 |
| 0.869 nM | B15 |
| 11.4 nM | B16 |
| 0.446 nM | B17 |
| 0.869 nM | B18 |
| 1.54 nM | B19 |
| 2.48 nM | B20 |
| 0.49 nM | B21 |
| 7.07 nM | B22 |
| 1.54 nM | B23 |

| apparent Kd (screen) | Binder |
| --- | --- |
| 0.869 nM | B24 |
| 2.25 nM | B25 |
| 1.05 nM | B26 |
| 1.27 nM | B27 |
| 0.49 nM | B28 |
| 0.869 nM | B29 |
| 0.593 nM | B30 |
| 0.446 nM | B31 |
| 0.49 nM | B32 |
| 6.43 nM | B33 |
| 0.49 nM | B34 |
| 3 nM | B35 |
| 0.539 nM | B36 |
| 0.956 nM | B37 |
| 13.8 nM | B38 |
| 0.446 nM | B39 |
| 13.8 nM | B40 |
| 0.49 nM | B41 |
| 0.718 nM | B42 |
| 1.27 nM | B43 |
